Measurements taken from patent US20230113563A1 (SYSTIMMUNE, published 2023).

B1: human MICA (Acro, MIA-H5221) (ligand, UniProt Q29983 24-307, looked up)
chain: EPHSLRYNLTVLSWDGSVQSGFLTEVHLDGQPFLRCDRQKCRAKPQGQWAEDVLGNKTWDRETRDLTGNGKDLRMTLAHIKDQKEGLHSLQEIRVCEIHEDNSTRSSQHFYYDGELFLSQNLETKEWTMPQSSRAQTLAMNVRNFLKEDAMKTKTHYHAMHADCLQELRRYLKSGVVLRRTVPPMVNVTRSEASEGNITVTCRASGFYPWNITLSWRQDGVSLSHDTQQWGDVLPDGNGTYQTWVATRICQGEEQRFTCYMEHSGNHSTHPVPSGKVLVLQSHW
notes: Bought reagent used as analyte in solution; also called NKG2D ligand MICA

Columns and labels:
[1] = molecular target: B1; assay: BLI (Octet); GNC protein loaded on AHC sensors at 5 ug/ml; human MICA as analyte, 1:2 serial dilutions from 100 nM; global fit, 1:1 model
Protocol: (§1) To validate functionality of the NKG2D receptor in the D2 position, Octet binding was performed. GNC protein was loaded onto AHC sensors at 5 ug/ml, and subsequently bound to 1:2 serial dilutions (top concentration 100 nM) of human MICA (Acro, MIA-H5221).

[2] = molecular target: T1, SI-49P7; assay: as above
T1 construct: Penta-specific GNC: same structure as SI-49P6, but with 4-1BB ligand trimer at D4 instead of the anti-4-1BB scFv
T1 sequence (heavy, as listed by the source): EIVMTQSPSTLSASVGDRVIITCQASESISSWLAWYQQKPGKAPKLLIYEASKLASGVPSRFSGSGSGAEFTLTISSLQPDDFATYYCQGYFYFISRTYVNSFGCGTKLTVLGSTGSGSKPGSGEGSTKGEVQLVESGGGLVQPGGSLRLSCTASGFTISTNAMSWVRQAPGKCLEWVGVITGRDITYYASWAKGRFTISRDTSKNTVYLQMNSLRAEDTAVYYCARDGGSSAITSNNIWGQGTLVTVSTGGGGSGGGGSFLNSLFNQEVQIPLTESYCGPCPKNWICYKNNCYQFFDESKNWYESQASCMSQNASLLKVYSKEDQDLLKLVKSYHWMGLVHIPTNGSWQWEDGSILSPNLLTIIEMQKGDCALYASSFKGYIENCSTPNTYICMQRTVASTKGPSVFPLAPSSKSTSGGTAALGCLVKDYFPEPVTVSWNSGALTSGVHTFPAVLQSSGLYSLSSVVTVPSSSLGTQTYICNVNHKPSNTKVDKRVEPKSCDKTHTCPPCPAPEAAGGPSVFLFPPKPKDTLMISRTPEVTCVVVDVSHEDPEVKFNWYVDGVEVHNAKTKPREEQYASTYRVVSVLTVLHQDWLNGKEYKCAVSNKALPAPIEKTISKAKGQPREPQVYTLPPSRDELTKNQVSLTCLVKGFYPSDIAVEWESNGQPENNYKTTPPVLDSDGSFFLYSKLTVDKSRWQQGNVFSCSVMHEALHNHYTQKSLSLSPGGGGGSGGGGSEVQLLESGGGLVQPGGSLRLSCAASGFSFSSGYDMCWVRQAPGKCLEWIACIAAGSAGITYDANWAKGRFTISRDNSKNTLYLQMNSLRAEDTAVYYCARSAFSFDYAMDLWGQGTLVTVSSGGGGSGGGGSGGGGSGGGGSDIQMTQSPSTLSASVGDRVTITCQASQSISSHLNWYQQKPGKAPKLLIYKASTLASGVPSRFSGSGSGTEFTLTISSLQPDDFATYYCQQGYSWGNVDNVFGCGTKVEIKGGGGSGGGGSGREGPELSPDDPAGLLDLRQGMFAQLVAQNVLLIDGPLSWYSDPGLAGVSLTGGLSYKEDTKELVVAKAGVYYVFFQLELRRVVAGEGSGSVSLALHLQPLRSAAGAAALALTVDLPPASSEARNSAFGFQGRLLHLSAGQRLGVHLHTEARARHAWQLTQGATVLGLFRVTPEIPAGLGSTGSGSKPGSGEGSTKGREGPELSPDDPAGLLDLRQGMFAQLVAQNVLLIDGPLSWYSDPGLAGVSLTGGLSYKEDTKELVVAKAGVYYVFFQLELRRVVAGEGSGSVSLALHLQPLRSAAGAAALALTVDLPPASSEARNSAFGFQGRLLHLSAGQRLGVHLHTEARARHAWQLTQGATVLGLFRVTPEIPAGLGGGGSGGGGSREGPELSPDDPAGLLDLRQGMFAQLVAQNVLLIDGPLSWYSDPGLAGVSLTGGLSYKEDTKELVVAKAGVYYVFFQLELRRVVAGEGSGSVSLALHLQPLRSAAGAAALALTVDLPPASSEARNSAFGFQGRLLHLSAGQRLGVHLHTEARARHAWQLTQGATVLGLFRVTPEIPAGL
Protocol: as §1

Row | Binder | Kd [1] [nM] | Kd [2] [nM]
1 | SI-49R23 (Fc fusion, Monospecific protein with NKG2D directly fused to the antibody Fc domain; Two copies are inferred from the Fc dimer) FLNSLFNQEVQIPLTESYCGPCPKNWICYKNNCYQFFDESKNWYESQASCMSQNASLLKVYSKEDQDLLKLVKSYHWMGLVHIPTNGSWQWEDGSILSPNLLTIIEMQKGDCALYASSFKGYIENCSTPNTYICMQRTVASEPKSSDKTHTCPPCPAPEAAGGPSVFLFPPKPKDTLMISRTPEVTCVVVDVSHEDPEVKFNWYVDGVEVHNAKTKPREEQYASTYRVVSVLTVLHQDWLNGKEYKCAVSNKALPAPIEKTISKAKGQPREPQVYTLPPSRDELTKNQVSLTCLVKGFYPSDIAVEWESNGQPENNYKTTPPVLDSDGSFFLYSKLTVDKSRWQQGNVFSCSVMHEALHNHYTQKSLSLSPGK | 14.9 | 
2 | SI-49R19 (bispecific antibody, Bispecific GNC: anti-CD3 scFv (αCD3-alt) at D1 and NKG2D at D2) heavy: not shown light: FLNSLFNQEVQIPLTESYCGPCPKNWICYKNNCYQFFDESKNWYESQASCMSQNASLLKVYSKEDQDLLKLVKSYHWMGLVHIPTNGSWQWEDGSILSPNLLTIIEMQKGDCALYASSFKGYIENCSTPNTYICMQRTVRTVAAPSVFIFPPSDEQLKSGTASVVCLLNNFYPREAKVQWKVDNALQSGNSQESVTEQDSKDSTYSLSSTLTLSKADYEKHKVYACEVTHQGLSSPVTKSFNRGEC | 3.93 | 
3 | B1 |  | 11.2
